{
  "source": "the nanobody polyreactivity screen of Harvey et al. (2022)",
  "data": [
    {"assay": "yeast display, Sf9 membrane polyspecificity reagent, FACS + sequencing; frameworks hold sequencing errors", "procedure,_shortened": "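Galactose-induced (36–48 hours) yeast carrying a synthetic nanobody display library were exposed to 10% biotinylated, detergent-solubilized Sf9 membrane reagent at 4 °C for 1 hour. FACS followed streptavidin microbead enrichment, using low and high (top ~1%) gates for expression (anti-HA) and reagent binding (streptavidin). Colony PCR, MiSeq 2 × 250 sequencing and CDR-length filtering followed. Labels for polyreactivity reflect the gate of origin.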", "values": [
      {"sequence": "QVQLVESGGGLVQAGGSLRLSCAASGSTIGWNAMGWYRQAPRKERELVAAISSSGGITYYADSVKGRYTISRDTAKNTVYLQMNSLKPDDTAVYDCAAEGDDDWVNYWGHGTQVTVSS", "polyreactivity (PSR sort gate)": "low polyreactivity"},
      {"sequence": "QVQLVESGGGLVQAGGSLRLSCAASGSTIGYYAMGWYRPAPGKERELVAAISWSGGSTYYADSVKGRFTISRDTAKNTVYFQMNSLKPEDTAGYYCAADTYPDYYLVEYYYWGQGTQVTVSS", "polyreactivity (PSR sort gate)": "low polyreactivity"},
      {"sequence": "QVQLVESGGGLVQAGGSLRLSCAASGSTIGYYARGWSRQAPGKERELVARIRSTGVSTFYADSVKGRFTISRDNAKNTVYLQMNSLKPEDTAVYYCAAPVSSLGWKHRQYTTWYEYWGQGTQVTVSS", "polyreactivity (PSR sort gate)": "high polyreactivity"},
      {"sequence": "QVQLVESGGGLVQAGGSLRLSCAASGSTIINYAMGWYRQAPGKERELVAVITSDDGSTYYADSVKGRFTISRDNAKNTVYLQMNSLKPEDTAVYYCAADYYDQRYRPGPWYDYWGQGSQVTVSS", "polyreactivity (PSR sort gate)": "low polyreactivity"},
      {"sequence": "QVQLVESGGGLVQAGGSLRLSCAASGSTIIYYAMGWYRQAPGKESELVATISTSGTSTYYADSVKGRFTISRDNAKNTVYLQMNSLKPEDTAVYYCNAVHRNWRQKFDYWGQGTQVTVSS", "polyreactivity (PSR sort gate)": "high polyreactivity"},
      {"sequence": "QVQLVESGGGLVQAGGSLRLSCAASGSTINYYAMGWYIQAPGKERELVARITWSGARTYYADSVKGRFTISRDNAKNTVYLQMNSLKPEDTAVYYCAAGYLALESPWYYRWYDYWGQGTQVTVSS", "polyreactivity (PSR sort gate)": "low polyreactivity"},
      {"sequence": "QVQLVESGGGLVQAGGSLRLSCAASGSTIQLYAMGWYRQAPGKERELVAAITSSAGRTYYADSVKGRFTISRDNAKNTVYLQMNSLKPEDTAVYYCAKDGSFTFWGQGTQVTVSS", "polyreactivity (PSR sort gate)": "low polyreactivity"},
      {"sequence": "QVQLVESGGGLVQAGGSLRLSCAASGSTIRAYGMGWYRQAPGKERELVAAISYSGDSTYYADSVKGRFTISRDNAKNTVYLQMNSLKPEDTAVYYCDADYSYRHYEYDYWGQGTQVTVSS", "polyreactivity (PSR sort gate)": "low polyreactivity"},
      {"sequence": "QVQLVESGGGLVQAGGSLRLSCAASGSTIRKNALGWSRQAPGKEREWVADIRRGGGTNYADSVKGRFTISRDNAKNTVYLQMNSLKPEDTAVYSCNTDILYYGRSKAPFYYCGQGTQVTVSS", "polyreactivity (PSR sort gate)": "high polyreactivity"},
      {"sequence": "QVQLVESGGGLVQAGGSLRLSCAASGSTIRSNAMGWYRQAPGKERELVAAITSGGSTYYAESVKGRFTISRDNAKNTVYLQMNSLKPEDTAVYYCAVRYYRRRYDYWGQGTQVTVSS", "polyreactivity (PSR sort gate)": "low polyreactivity"},
      {"sequence": "QVQLVESGGGLVQAGGSLRLSCAASGSTIRSYAMGWYRQATRKERELVARIAYSSGRTYYADSVKGRFTISRDNAKNTVYLQMNSLKPEDTAVYYCAVRGYGYGYDYWGQGTQVTVSS", "polyreactivity (PSR sort gate)": "high polyreactivity"},
      {"sequence": "QVQLVESGGGLVQAGGSLRLSCAASGSTISFYAMGWYRQAPGKERELVAAISFRGGRTYYADSVKGRFTISRDNAKNTVYLQMYSLKPEDTAVYYCAAVWYYGHARYDYWGQGTQVTVSS", "polyreactivity (PSR sort gate)": "high polyreactivity"},
      {"sequence": "QVQLVESGGGLVQAGGSLRLSCAASGSTISFYAMGWYRQAPGKERELVAAISRSGGSTFYADSVKGRFTISRDNAKNTVYLQMNSLKPEDTAVYYCAAYGGMQSRYYYWGQGTQVTVSS", "polyreactivity (PSR sort gate)": "high polyreactivity"},
      {"sequence": "QVQLVESGGGLVQAGGSLRLSCAASGSTISPYAMGWYRQAPGKEREFVAAISRSGGSTYYADSVKVRFTISRDNAKNTVYLQMNSLKPEDTAVYYCARRYARITPVYPPLNYWGQGTQVTVSS", "polyreactivity (PSR sort gate)": "high polyreactivity"},
      {"sequence": "QVQLVESGGGLVQAGGSLRLSCAASGSTISRNAMGWYRQAPGKERELVAAITSKGDSTYYADSVKGRFTISRDNAKNTVYLQMNSLKPEDTAVYYCAAVRRGYKYDYWGQGTQVTVSS", "polyreactivity (PSR sort gate)": "low polyreactivity"},
      {"sequence": "QVQLVESGGGLVQAGGSLRLSCAASGSTISRYAMGWYRHAPGKERELVAAISWNGGDTYYADSVKGRFTISRDYAKNTVFLQMNSLKPEDTAVYYCNTPRRITRAGYWAGSRYNYWGQGTQVTVSS", "polyreactivity (PSR sort gate)": "high polyreactivity"},
      {"sequence": "QVQLVESGGGLVQAGGSLRLSCAASGSTISRYAMGWYRQAPGKEREFVAAISWRGGSTYYADSVKGRFTISRDNAKNTVYLQLNSLKPEDTAVYYCNADYRYARKGHYGKFGYWGQGTQVNVSS", "polyreactivity (PSR sort gate)": "high polyreactivity"},
      {"sequence": "QVQLVESGGGLVQAGGSLRLSCAASGSTITYYAMGWYRQAPGKERELVAAISGSGRTHYADSVKGRFTISRDNAKNTVYLQMNSLKPEDTAVYDCNARQYTYNYAFTRCKYDYWGQGTQVTVSS", "polyreactivity (PSR sort gate)": "high polyreactivity"},
      {"sequence": "QVQLVESGGGLVQAGGSLRLSCAASGSTIVGYTMGWYRQAPGKERELVAAISRGGGSTYYADSVKGRFTISRDNAKNTVYLQMNSLKPEDTAVYYCNAYTYNRYYWGQGTQVTVSS", "polyreactivity (PSR sort gate)": "high polyreactivity"},
      {"sequence": "QVQLVESGGGLVQAGGSLRLSCAASGSTIVIYTMGWYRQAPGKERELVAAISQSGGRTYYADSVKGRFTISRDNSKNTVYLQMNSLKPEDTAVYYCAATWGKHYGYWGQGTQVTVSS", "polyreactivity (PSR sort gate)": "high polyreactivity"},
      {"sequence": "QVQLVESGGGLVQAGGSLRLSCAASGSTIVVNAMGWSRQAPGKERELVASISWTTGSTYYADSVKGRFTISRDNAKNTVFLQMNSLKPEDTAVYYCAADILPRYSQFDYWGQGTQVTVSS", "polyreactivity (PSR sort gate)": "low polyreactivity"},
      {"sequence": "QVQLVESGGGLVQAGGSLRLSCAASGSTIVYYAMGWYRQAPGKERELVARITWSGGRTYADSVKGRFTISRDNAKNTVYLQMNSLKPEDTAVYYCNADPGDNTTEYDYWGQGTQVTVSS", "polyreactivity (PSR sort gate)": "low polyreactivity"},
      {"sequence": "QVQLVESGGGLVQAGGSLRLSCAASGSTIYINGMGWYRQAAGKERELVAVISKRGGTTYYADSVKGRFTISRDNAKNTVYLQMNSLKPEDTAVYYCADRPYYWGQGTQVTVSS", "polyreactivity (PSR sort gate)": "high polyreactivity"},
      {"sequence": "QVQLVESGGGLVQAGGSLRLSCAASGSTIYLYAMGWSRPAPGKERVLVAAIRGRGGRTYYADSVKGRFTISSDNAKNTVYLKMNSLKPEDTAVYYCNADVYAYYRATTRFDYWGQGTQVTVSS", "polyreactivity (PSR sort gate)": "high polyreactivity"},
      {"sequence": "QVQLVESGGGLVQAGGSLRLSCAASGSTLAIYAKGWYRQAPGKERELVAAISGGGSTYADSVKGRFTISRDNAKNTVYLQMNSLKPEDTAVYYCNADGWGDRFWSNFRFDYWGQGTQVTVSS", "polyreactivity (PSR sort gate)": "low polyreactivity"},
      {"sequence": "QVQLVESGGGLVQAGGSLRLSCAASGSTLALNAIGWYRQAPGKEREFVADISWSGGDTYYADSVKGRFTISRDNAKNTVYLQMNILKPEDTAVYYCATDFSYQFQALEDDYWGQGTQVTVSS", "polyreactivity (PSR sort gate)": "low polyreactivity"},
      {"sequence": "QVQLVESGGGLVQAGGSLRLSCAASGSTLALYTMGWYIQAPGKERELVAAISKNGGRTYYADSVKGRFRISRDNAMNTVYLQMNSLKPEDTAVYYCAAASGSYRGYDYWGQCTQVTVSS", "polyreactivity (PSR sort gate)": "high polyreactivity"},
      {"sequence": "QVQLVESGGGLVQAGGSLRLSCAASGSTLARYAMGWYRQAPGKERELVAAISSDGRTYYADSVKGRFTISRDNAKNTVYLQIYSLKPEDTAVYYCATLRPYAYPQYDSWGQGTQVTVSS", "polyreactivity (PSR sort gate)": "high polyreactivity"},
      {"sequence": "QVQLVESGGGLVQAGGSLRLSCAASGSTLDGYGMRWYRQAPGKERELVAVITIGGGRTYYADSVKGRFTISRDNAKNTVYLQMNSLKPEDTAVSYCAAKGWRRYYIGDYWGQGTQVTVSS", "polyreactivity (PSR sort gate)": "high polyreactivity"},
      {"sequence": "QVQLVESGGGLVQAGGSLRLSCAASGSTLDSYAMGSYRQAPGKERELVAAISGSGGSTYYADSVKGRFTISRDNAKNTVYLEMNSLKPEDTAVYYCDTDYSTQTLGYWYDYWGQGTQVSVSS", "polyreactivity (PSR sort gate)": "low polyreactivity"},
      {"sequence": "QVQLVESGGGLVQAGGSLRLSCAASGSTLFYAMGWYRQAPGKERELVAAISWSGGSTRYADSVKGRFTISRDNAKNTVYLQMNSLKPEDTAVYYCNTYTKHTGYYWKYDYWGQGTQVTVSS", "polyreactivity (PSR sort gate)": "low polyreactivity"},
      {"sequence": "QVQLVESGGGLVQAGGSLRLSCAASGSTLGDNGMGWYIQAPGKERELVAAITIGGSTTYADSVKGRFTISRDNAKNTVYLQMNSLKPEDTAVYYCAADQQARDQYSDWTEYDYWGQGTQVNVSS", "polyreactivity (PSR sort gate)": "low polyreactivity"},
      {"sequence": "QVQLVESGGGLVQAGGSLRLSCAASGSTLGPYAMGWYRQAPGKERELVATINSSGSTNYADSVKGRFTISRDNAKNPVYLQMNSLKPEDTAVYYCATLHYYYWYDYWGQGTQVTVSS", "polyreactivity (PSR sort gate)": "low polyreactivity"},
      {"sequence": "QVQLVESGGGLVQAGGSLRLSCAASGSTLGRYAMGWYRQAPGKERELVASITWSDDSTYYADSVKGRFTISRDNAKNTVYLQMNSLKPEDTAVYYCAAAGNLYTYRFYYWGQGTQVTVSS", "polyreactivity (PSR sort gate)": "low polyreactivity"},
      {"sequence": "QVQLVESGGGLVQAGGSLRLSCAASGSTLGVYAMGWYRQAPGKERELVAAITIGGSTNFADSVKGRFTISRDNAKNTVYLQLNSLKPEDTAVYYCNAYYYWEGHGYTLLSYYYWGQGTQVTVSS", "polyreactivity (PSR sort gate)": "low polyreactivity"},
      {"sequence": "QVQLVESGGGLVQAGGSLRLSCAASGSTLGWYGMGWSRQAPGKERELVAAIDSGGNTYADSVKGRFTISRDNAKNTVYLQMNSLKPEDTAVYYCAVDGGEFSSYGYWGQGTQVTVSS", "polyreactivity (PSR sort gate)": "low polyreactivity"},
      {"sequence": "QVQLVESGGGLVQAGGSLRLSCAASGSTLGYYAMGWYRQAPGIVRELVAAISWSGGRTYYADSVKGRFTISRDYAKNTVYLQMKSLKPEDTAVYYCNALYRTHYTGSVYYSWGQGTQVSVSS", "polyreactivity (PSR sort gate)": "high polyreactivity"},
      {"sequence": "QVQLVESGGGLVQAGGSLRLSCAASGSTLGYYAMGWYRQAPGKERELVAAITSSDGGTYYADSVKGRFTISRDNAKNTVYLQMNSLKPEDTAVYYCAKRRYTSAFGSWYAYDYWGQGTQVNVSS", "polyreactivity (PSR sort gate)": "high polyreactivity"},
      {"sequence": "QVQLVESGGGLVQAGGSLRLSCAASGSTLIDNVMGWYRQAPGKERELVASITSSDGTTYADSVKGRFTISRDNAKNTVYLQMNSLKPEDTAVYYCAARPWYGTYNYWGQGTQVTVSS", "polyreactivity (PSR sort gate)": "low polyreactivity"},
      {"sequence": "QVQLVESGGGLVQAGGSLRLSCAASGSTLIRNDMGWYRQAPAKERELVAAINTRGTTTYYADSVKGRFTISRDNAKNTVYLQMNSLKPEDTAVYYCAAYAYSAYSPDGQRSRYYYWGQGTQVTVSS", "polyreactivity (PSR sort gate)": "high polyreactivity"},
      {"sequence": "QVQLVESGGGLVQAGGSLRLSCAASGSTLIRNVMGWYRQAPGKERELVAAINTRGTTTYYADSVKGRITISRDNAKNTVYLQMNSLKPEDTAVYYCAARTPHYSYGYWGQGTHVTVSS", "polyreactivity (PSR sort gate)": "high polyreactivity"}
    ]}
  ]
}
